For nine substances, binding signal (z-score (mean of top ten 7-mers)) results are on record in publication PMC12990809.

Holding throughout (experiment): pulldown
Series [1] deals with T1, rsp-3 (Caenorhabditis elegans) (UniProt Q9NEW6).
T1 sequence: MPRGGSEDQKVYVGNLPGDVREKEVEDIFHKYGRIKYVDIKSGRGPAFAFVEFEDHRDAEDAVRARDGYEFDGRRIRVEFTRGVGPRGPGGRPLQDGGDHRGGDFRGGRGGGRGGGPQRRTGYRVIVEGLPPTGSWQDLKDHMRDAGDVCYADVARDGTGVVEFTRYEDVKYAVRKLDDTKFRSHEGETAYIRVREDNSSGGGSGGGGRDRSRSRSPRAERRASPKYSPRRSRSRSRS
The following applies: 20 nM protein, 1.5 uM RNA pool; 20 mM HEPES pH 7.8, 70 mM KCl, 10 mM NaCl, 10% glycerol, 2 mM DTT, 0.1 ug/uL BSA; 30 min, 4 C.

For series [2], the target named is T2, Smp_006320 (Schistosoma mansoni) (UniProt G4VQQ6).
T2 sequence: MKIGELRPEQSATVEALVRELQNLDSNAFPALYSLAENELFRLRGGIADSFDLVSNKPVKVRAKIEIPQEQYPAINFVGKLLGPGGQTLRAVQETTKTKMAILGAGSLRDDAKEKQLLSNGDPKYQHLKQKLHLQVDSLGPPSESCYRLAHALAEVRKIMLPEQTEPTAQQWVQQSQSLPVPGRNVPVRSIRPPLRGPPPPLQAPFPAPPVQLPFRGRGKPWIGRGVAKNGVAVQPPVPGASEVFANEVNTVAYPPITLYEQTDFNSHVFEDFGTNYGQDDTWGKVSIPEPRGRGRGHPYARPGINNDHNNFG
The following applies: 20 nM protein, 1.5 uM RNA pool; 20 mM HEPES pH 7.8, 70 mM KCl, 10 mM NaCl, 10% glycerol, 2 mM DTT, 0.1 ug/uL BSA; 30 min, 4 C.

Series [3] deals with T3, PF14_0151 (Plasmodium falciparum) (UniProt Q8ILU3).
T3 sequence: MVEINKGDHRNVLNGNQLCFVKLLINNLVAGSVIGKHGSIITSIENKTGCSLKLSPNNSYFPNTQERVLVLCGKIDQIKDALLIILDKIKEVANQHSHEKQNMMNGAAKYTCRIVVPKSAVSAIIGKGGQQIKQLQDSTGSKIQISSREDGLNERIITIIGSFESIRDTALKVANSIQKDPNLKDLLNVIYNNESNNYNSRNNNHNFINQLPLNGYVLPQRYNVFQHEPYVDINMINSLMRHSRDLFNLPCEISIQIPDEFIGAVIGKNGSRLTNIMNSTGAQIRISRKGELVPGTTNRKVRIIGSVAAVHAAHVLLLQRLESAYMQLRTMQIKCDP
The following applies: 20 nM protein, 1.5 uM RNA pool; 20 mM HEPES pH 7.8, 70 mM KCl, 10 mM NaCl, 10% glycerol, 2 mM DTT, 0.1 ug/uL BSA; 30 min, 4 C.

Series [4] has as its target T4, PK01594.1 (Cannabis sativa) (UniProt A0A803NG34).
T4 sequence: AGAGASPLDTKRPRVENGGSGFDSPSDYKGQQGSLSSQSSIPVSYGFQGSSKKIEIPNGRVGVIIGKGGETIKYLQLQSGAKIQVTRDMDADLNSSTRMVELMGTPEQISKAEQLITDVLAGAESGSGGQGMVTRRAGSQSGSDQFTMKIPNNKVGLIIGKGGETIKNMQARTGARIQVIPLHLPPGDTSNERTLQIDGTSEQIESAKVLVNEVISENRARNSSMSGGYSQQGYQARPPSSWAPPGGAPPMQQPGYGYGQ
The following applies: 20 nM protein, 1.5 uM RNA pool; 20 mM HEPES pH 7.8, 70 mM KCl, 10 mM NaCl, 10% glycerol, 2 mM DTT, 0.1 ug/uL BSA; 30 min, 4 C.

For series [5], the target named is T5, CG15440 (Drosophila melanogaster) (UniProt Q7KU43).
T5 sequence: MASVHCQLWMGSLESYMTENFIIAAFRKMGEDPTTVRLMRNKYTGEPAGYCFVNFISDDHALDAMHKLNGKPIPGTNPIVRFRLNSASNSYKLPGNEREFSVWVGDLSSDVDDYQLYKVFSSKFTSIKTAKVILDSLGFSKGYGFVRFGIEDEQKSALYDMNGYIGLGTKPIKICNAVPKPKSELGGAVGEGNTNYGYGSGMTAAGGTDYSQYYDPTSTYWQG
The following applies: 20 nM protein, 1.5 uM RNA pool; 20 mM HEPES pH 7.8, 70 mM KCl, 10 mM NaCl, 10% glycerol, 2 mM DTT, 0.1 ug/uL BSA; 30 min, 4 C.

The target in series [6] is PGTG_00837 (Puccinia graminis) (UniProt E3JTY5). The following applies: 20 nM protein, 1.5 uM RNA pool; 20 mM HEPES pH 7.8, 70 mM KCl, 10 mM NaCl, 10% glycerol, 2 mM DTT, 0.1 ug/uL BSA; 30 min, 4 C.
In series [7] the target is T6, Hrb27C (Drosophila melanogaster) (UniProt P48809).
T6 sequence: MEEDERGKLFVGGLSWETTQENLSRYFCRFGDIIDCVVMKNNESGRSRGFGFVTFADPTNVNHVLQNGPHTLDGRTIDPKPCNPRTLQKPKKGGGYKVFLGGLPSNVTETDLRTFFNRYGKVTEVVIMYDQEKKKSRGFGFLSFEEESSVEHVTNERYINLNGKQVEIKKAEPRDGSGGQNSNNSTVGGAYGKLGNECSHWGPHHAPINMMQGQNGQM
The following applies: 20 nM protein, 1.5 uM RNA pool; 20 mM HEPES pH 7.8, 70 mM KCl, 10 mM NaCl, 10% glycerol, 2 mM DTT, 0.1 ug/uL BSA; 30 min, 4 C (protocol of this paper; not …); cited from earlier work.

The target of series [8] is PGTG_09691 (Puccinia graminis) (UniProt E3KI53). The following applies: 20 nM protein, 1.5 uM RNA pool; 20 mM HEPES pH 7.8, 70 mM KCl, 10 mM NaCl, 10% glycerol, 2 mM DTT, 0.1 ug/uL BSA; 30 min, 4 C.
Series [9] deals with T7, UBA2B (Arabidopsis thaliana) (UniProt O80678).
T7 sequence: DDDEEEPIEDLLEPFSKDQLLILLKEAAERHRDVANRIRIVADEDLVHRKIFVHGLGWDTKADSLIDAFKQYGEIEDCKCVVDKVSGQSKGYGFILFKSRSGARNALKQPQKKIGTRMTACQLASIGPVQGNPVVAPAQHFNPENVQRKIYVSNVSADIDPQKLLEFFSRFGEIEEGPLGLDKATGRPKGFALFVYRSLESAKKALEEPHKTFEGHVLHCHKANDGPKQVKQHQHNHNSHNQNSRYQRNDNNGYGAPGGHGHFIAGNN
The following applies: 20 nM protein, 1.5 uM RNA pool; 20 mM HEPES pH 7.8, 70 mM KCl, 10 mM NaCl, 10% glycerol, 2 mM DTT, 0.1 ug/uL BSA; 30 min, 4 C.

Substance AGGACGA [RNAcompete motif RNCMPT00503] gave a binding signal (z-score (mean of top ten 7-mers)) in [1] of 7.55.
The substance AUAAAUA [RNAcompete motif RNCMPT00500] yielded a binding signal (z-score (mean of top ten 7-mers)) in series [2] of 8.79.
On to AUACANA [RNAcompete motif RNCMPT00505], for which the binding signal (z-score (mean of top ten 7-mers)) in series [3] was found to be 8.57.
In [4], AUAUUGU [RNAcompete motif RNCMPT00478] gave a binding signal (z-score (mean of top ten 7-mers)) of 7.33.
In [5], GAUAUU [RNAcompete motif RNCMPT00513] displayed a binding signal (z-score (mean of top ten 7-mers)) of 13.9.
In [6], GGUGGA [RNAcompete motif RNCMPT00476] returned a binding signal (z-score (mean of top ten 7-mers)) of 6.99.
On to UAGGNUA [RNAcompete motif RNCMPT00093], for which, in series [7], the binding signal (z-score (mean of top ten 7-mers)) was 12.1.
In turn, UUGCAC [RNAcompete motif RNCMPT00482] came in with a binding signal (z-score (mean of top ten 7-mers)) in series [8] of 11.4.
Consider UUUUU [RNAcompete motif RNCMPT00475], for which, in series [9], the binding signal (z-score (mean of top ten 7-mers)) was 10.7.
